Source: patent publication US20250320461A1, “GENETICALLY MODIFIED HUMAN STEM CELL EXPRESSING A MUTANT HUMAN CYTOCHROME P450 2B6 PROTEIN AND ITS USE THEREOF IN THE TREATMENT OF CANCER” (ASSISTANCE PUBLIQUE-HOPITAUX DE PARIS, priority 2019, published 2025)

Assay: affinity of cytochrome P450 2B6 protein for CPA
Assay type: biochemical, human
Description: In one particularly advantageous embodiment, said variants and fragments have an affinity for CPA the same as, substantially the same as, or greater than, that of the mutant human cytochrome P450 2B6 protein (CYP2B6*) of SEQ ID No 1.

B1: CYP2B6*: mutant human cytochrome P450 2B6 protein of SEQ ID No. 1 (substitutions I114V, L199M, V477W) (protein, listed as Homo sapiens)
chain: MELSVLLFLALLTGLLLLLVQRHPNTHDRLPPGPRPLPLLGNLLQMDRRGLLKSFLRFREKYGDVFTVHLGPRPVVMLCGVEAIREALVDKAEAFSGRGKIAMVDPFFRGYGVVFANGNRWKVLRRFSVTTMRDFGMGKRSVEERIQEEAQCLIEELRKSKGALMDPTFLFQSITANIICSIVFGKRFHYQDQEFLKMMNLFYQTFSLISSVFGQLFELFSGFLKYFPGAHRQVYKNLQEINAYIGHSVEKHRETLDPSAPKDLIDTYLLHMEKEKSNAHSEFSHQNLNLNTLSLFFAGTETTSTTLRYGFLLMLKYPHVAERVYREIEQVIGPHRPPELHDRAKMPYTEAVIYEIQRFSDLLPMGVPHIVTQHTSFRGYIIPKDTEVFLILSTALHDPHYFEKPDAFNPDHFLDANGALKKTEAFIPFSLGKRICLGEGIARAELFLFFTTILQNFSMASPVAPEDIDLTPQECGWGKIPPTYQIRFLPR
Q: Which Vmax (compared with CYP2B6 WT) does the source give for B1 here?
A: same

Q: And the “affinity for CPA relative to the wild-type protein (CYP2B6 WT)” value (vs CYP2B6 WT)?
A: more than 8 times
